According to paper PMC11671767, “GENOMES UNCOUPLED PROTEIN1 binds to plastid RNAs and promotes their maturation”:

Assays:
GUN1-PS [1] = target: T1, GUN1-PS (Arabidopsis thaliana, UniProt Q9SIC9 232-918); test: competition; vs Cy5-trnG.1, 5-50x; 5x buffer (4 ul per reaction): 50 mM Tris-HCl pH 7.5, 50 mM NaCl, 200 mM KCl, 5 mM MgCl2, 5 mM EDTA, 5 mM DTT, 0.25 mg/ml BSA, 5% glycerol; 30 min at 23 C; 5% native PAGE, 0.5x TBE, 4 C; conditions: protein: recombinant; tags: N-terminal TRX-His
T1 sequence: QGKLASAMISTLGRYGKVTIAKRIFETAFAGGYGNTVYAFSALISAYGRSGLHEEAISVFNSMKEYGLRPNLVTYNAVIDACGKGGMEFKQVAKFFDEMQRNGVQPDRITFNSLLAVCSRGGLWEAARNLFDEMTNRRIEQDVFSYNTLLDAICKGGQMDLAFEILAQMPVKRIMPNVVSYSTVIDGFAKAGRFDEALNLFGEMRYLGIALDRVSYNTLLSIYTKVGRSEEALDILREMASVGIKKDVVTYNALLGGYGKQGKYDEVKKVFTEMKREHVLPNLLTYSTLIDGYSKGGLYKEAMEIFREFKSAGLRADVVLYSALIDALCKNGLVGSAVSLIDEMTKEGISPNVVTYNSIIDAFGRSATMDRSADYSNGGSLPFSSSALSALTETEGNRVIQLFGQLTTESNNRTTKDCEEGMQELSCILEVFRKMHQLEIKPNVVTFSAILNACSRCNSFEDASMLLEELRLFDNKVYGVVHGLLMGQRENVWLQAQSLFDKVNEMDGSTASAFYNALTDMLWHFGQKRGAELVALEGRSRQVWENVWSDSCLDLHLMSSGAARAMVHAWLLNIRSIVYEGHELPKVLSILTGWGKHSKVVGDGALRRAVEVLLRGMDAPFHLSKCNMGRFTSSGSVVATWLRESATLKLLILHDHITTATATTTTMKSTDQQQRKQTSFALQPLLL

GUN1-PS [2] = target: T1, GUN1-PS; test: EMSA; binding at 37 C, gel at room temperature; similar to RNA1; 5x buffer (4 ul per reaction): 50 mM Tris-HCl pH 7.5, 50 mM NaCl, 200 mM KCl, 5 mM MgCl2, 5 mM EDTA, 5 mM DTT, 0.25 mg/ml BSA, 5% glycerol; 30 min at 23 C; 5% native PAGE, 0.5x TBE, 4 C; conditions: protein: recombinant; tags: N-terminal TRX-His
GUN1-PS [3] = target: T1, GUN1-PS; test: competition; vs Cy5-ndhG, 5-50x; 5x buffer (4 ul per reaction): 50 mM Tris-HCl pH 7.5, 50 mM NaCl, 200 mM KCl, 5 mM MgCl2, 5 mM EDTA, 5 mM DTT, 0.25 mg/ml BSA, 5% glycerol; 30 min at 23 C; 5% native PAGE, 0.5x TBE, 4 C; conditions: protein: recombinant; tags: N-terminal TRX-His; hairpin loop (predicted)
GUN1-PS [4] = target: T1, GUN1-PS; test: competition; vs Cy5-23S_104856, 5-50x; reduces the weak shift; 5x buffer (4 ul per reaction): 50 mM Tris-HCl pH 7.5, 50 mM NaCl, 200 mM KCl, 5 mM MgCl2, 5 mM EDTA, 5 mM DTT, 0.25 mg/ml BSA, 5% glycerol; 30 min at 23 C; 5% native PAGE, 0.5x TBE, 4 C; conditions: protein: recombinant; tags: N-terminal TRX-His
GUN1-PS [5] = target: T1, GUN1-PS; test: EMSA; 100-600 nM protein; 5x buffer (4 ul per reaction): 50 mM Tris-HCl pH 7.5, 50 mM NaCl, 200 mM KCl, 5 mM MgCl2, 5 mM EDTA, 5 mM DTT, 0.25 mg/ml BSA, 5% glycerol; 30 min at 23 C; 5% native PAGE, 0.5x TBE, 4 C; conditions: protein: recombinant, tags: N-terminal TRX-His
GUN1-PS [6] = target: T1, GUN1-PS; test: EMSA; binding at 37 C, gel at room temperature; no clear shift; 5x buffer (4 ul per reaction): 50 mM Tris-HCl pH 7.5, 50 mM NaCl, 200 mM KCl, 5 mM MgCl2, 5 mM EDTA, 5 mM DTT, 0.25 mg/ml BSA, 5% glycerol; 30 min at 23 C; 5% native PAGE, 0.5x TBE, 4 C; conditions: protein: recombinant; tags: N-terminal TRX-His

## AUUUGGGAAUUUCUCCAUCCAUCAU (ssRNA) [trnG.1 unlabeled]
GUN1-PS [1]
  binding result: binds

## GGACCGAAUGAUCUAUCUCU (ssRNA) [Kim_RNA3 (BLRP mut)]
GUN1-PS [2]
  binding result: no binding

## AGAAAAAAAUCUGUUGAUAAAUGAA (ssRNA) [ndhG_118454 unlabeled]
GUN1-PS [3]
  binding result: binds

## GCAUCUGAAUUUCAUAACCAAUCUCGAU (ssRNA) [nonspecific competitor for trnG.1]
GUN1-PS [1]
  binding result: no binding

## AUUCUUAUGUGGCAGUCUCUAGUCCACUAGCUUUUG (ssRNA) [nonspecific competitor for 23S and ndhG]
GUN1-PS [4]
  binding result: binds

## AUUUGGGAAUUUCUCCAUCCAUCAU (ssRNA) [trnG.1]
GUN1-PS [5]
  binding result: binds

## GGAAAUCCGUCGAUAUCUCU (ssRNA) [Kim_RNA1 (BLRP)]
GUN1-PS [6]
  binding result: no binding

## AGAAAAAAAUCUGUUGAUAAAUGAA (ssRNA) [ndhG_118454]
GUN1-PS [5]; hairpin loop (predicted)
  binding result: binds
